Results reported in US20260116958A1 (University of California, published 2026).

Legend:
active BoNT/G holotoxin [1] = molecular target: T1, active BoNT/G holotoxin (Clostridium botulinum, UniProt Q60393 2-1297); test: KinExA, IgG
T1 sequence: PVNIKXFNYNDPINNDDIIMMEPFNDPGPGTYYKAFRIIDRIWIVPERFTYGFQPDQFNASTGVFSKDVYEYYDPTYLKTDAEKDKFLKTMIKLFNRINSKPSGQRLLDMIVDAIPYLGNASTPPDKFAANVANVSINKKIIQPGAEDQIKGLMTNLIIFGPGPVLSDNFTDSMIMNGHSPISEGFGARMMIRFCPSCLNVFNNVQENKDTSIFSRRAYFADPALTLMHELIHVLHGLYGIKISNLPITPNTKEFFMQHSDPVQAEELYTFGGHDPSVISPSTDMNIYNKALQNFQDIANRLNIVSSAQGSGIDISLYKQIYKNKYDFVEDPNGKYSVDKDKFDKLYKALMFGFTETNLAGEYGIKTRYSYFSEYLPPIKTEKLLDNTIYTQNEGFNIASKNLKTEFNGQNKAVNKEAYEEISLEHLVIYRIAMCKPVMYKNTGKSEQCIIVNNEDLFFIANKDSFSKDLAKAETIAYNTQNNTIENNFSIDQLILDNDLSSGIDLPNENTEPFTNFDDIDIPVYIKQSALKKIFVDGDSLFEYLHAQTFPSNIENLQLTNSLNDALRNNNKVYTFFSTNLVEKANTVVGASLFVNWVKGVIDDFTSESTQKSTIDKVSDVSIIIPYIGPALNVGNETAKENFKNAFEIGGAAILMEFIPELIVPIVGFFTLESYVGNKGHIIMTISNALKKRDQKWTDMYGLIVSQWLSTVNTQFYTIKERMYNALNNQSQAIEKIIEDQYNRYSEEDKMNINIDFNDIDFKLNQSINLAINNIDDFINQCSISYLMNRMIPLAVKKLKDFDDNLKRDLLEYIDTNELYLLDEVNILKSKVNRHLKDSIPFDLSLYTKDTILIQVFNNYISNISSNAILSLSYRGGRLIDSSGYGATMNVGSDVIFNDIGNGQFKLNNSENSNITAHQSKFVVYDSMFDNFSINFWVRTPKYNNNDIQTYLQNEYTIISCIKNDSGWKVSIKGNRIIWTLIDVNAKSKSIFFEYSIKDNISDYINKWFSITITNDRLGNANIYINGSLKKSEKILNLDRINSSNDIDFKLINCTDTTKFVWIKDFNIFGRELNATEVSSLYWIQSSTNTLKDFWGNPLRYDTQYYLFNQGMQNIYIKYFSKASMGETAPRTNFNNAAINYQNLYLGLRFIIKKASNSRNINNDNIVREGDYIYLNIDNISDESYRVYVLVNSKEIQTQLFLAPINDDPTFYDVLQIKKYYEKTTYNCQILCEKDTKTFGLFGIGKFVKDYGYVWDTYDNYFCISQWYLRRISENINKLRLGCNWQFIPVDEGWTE

active BoNT/G holotoxin [2] = molecular target: T1, active BoNT/G holotoxin; test: KinExA, IgG; 'affinity to the active BoNT/G holotoxin'

B1: Hu6G7.2 IgG (antibody, V domains shown)
VH: QVQLVQSGAEVKKPGASVKVSCKASDYSFTDYNIYWVRQTPGQGLEWIGYIDPYNGGTSYNQKFKGRATLTVDKSISTAYMELSRLRSDDTAVYYCALYGYDPDYTEYWGQGTTLTVSS
VL: DIVLTQSPASMAVSPGQRVTITCSASSSVSYLHWFQQKPGQSPKLWIYSTSNLASGVPARFSGSGSGTDYTLTINPMEAEDTATYYCQQRSSYPYTFGQGTKLEIKR
Kd (active BoNT/G holotoxin [1]): 0.051 nM
Kd (active BoNT/G holotoxin [2]): 0.051 nM
